Assays:
gp41 N-peptide (35-70) [1] = assay: Superdex 75 gel filtration; free Fusonex elutes at 17.3 ml
gp41 N-peptide (35-70) [2] = assay: CD thermal melting of the peptide complex, 20-95° C.
HIV-1 gp160HXB = HIV-1 gp160HXB (HIV-1, UniProt P04578 512-856); assay: cell-based or functional assay
Chain of HIV-1 gp160HXB (P04578 512-856): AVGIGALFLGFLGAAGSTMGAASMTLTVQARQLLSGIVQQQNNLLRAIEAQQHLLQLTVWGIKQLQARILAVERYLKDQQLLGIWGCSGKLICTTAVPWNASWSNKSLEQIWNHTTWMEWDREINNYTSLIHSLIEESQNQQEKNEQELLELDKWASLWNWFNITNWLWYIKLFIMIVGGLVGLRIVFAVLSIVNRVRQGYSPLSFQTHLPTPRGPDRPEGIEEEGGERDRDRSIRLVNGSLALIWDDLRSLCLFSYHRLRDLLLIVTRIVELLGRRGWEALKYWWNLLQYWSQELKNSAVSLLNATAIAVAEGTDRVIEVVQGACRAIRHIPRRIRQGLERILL

Chain of gp41 N-peptide (35-70) (P04578 546-581): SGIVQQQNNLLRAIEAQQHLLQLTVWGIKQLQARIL

What does the source list for Fusonex (peptide)?
elution peak of the complex (gp41 N-peptide (35-70) [1]): 13.2 mL; 50% melting temperature of the complex (gp41 N-peptide (35-70) [2]): 70 ° C.

T-20 (peptide) was tested. Which 50% melting temperature of the complex (gp41 N-peptide (35-70) [2]) did it give?
Its 50% melting temperature of the complex is 51 ° C.

With Ac-SWETWEREIENYTKQIYKILEESQEQQDRNEKDLLE-NH2 [Fusonex] as the molecule, how does the “IC50, cell-cell fusion induced by HIV-1 gp160HXB (luciferase reporter)” value (HIV-1 gp160HXB) read?
Its value is 1.2 nM.

And the “IC50 relative to T-20, cell-cell fusion induced by HIV-1 gp160HXB” value (HIV-1 gp160HXB)?
Its value is ~0.05 fold of T-20.
